In PMC8998336, “Structural and Biophysical Insights into SPINK1 Bound to Human Cationic Trypsin” (International Journal of Molecular Sciences, 2022):
Positions count from the first letter of the chain named. In names and notes the source's numbering stands.

B1: serine protease inhibitor Kazal-type 1 (SPINK1) WT (natural protein, human, UniProt P00995 24-79, looked up)
chain: DSLGREAKCYNELNGCTKIYDPVCGTDGNTYPNECVLCFENRKRQTSILIQKSGPC
notes: N-terminal truncation removes the signal peptide; pET47b construct with His6-tag and HRV3C cleavage site; source: SHuffle T7 Express E. coli, purified (HisTrap HP, HRV3C digestion, His6-tag removed on the same HisTrap column); not shown: His6, N-terminal, cleaved
B2: serine protease inhibitor Kazal-type 1 (SPINK1) p.N34S (natural protein, human, UniProt P00995 24-79, looked up)
chain: B1 chain with N11S
notes: made by site directed mutagenesis; pET47b construct with His6-tag and HRV3C cleavage site; also called SPINK1 N34S; p.N34S mutant; source: SHuffle T7 Express E. coli, purified (HisTrap HP, HRV3C digestion, His6-tag removed on the same HisTrap column); not shown: His6, N-terminal, cleaved

How the values were obtained:
Details in all cases: both partners purified
[1] = target: T1, human cationic trypsin (TRY1) p.S200A (human, UniProt P07477 24-247, p.S200A); assay: SPR; BIAcore T200, TRY1 p.S200A amine-coupled to a CM5 chip; SPINK1 3.125-50 nM, single-cycle kinetics, 37 °C, 50 µL/min; 20 mM Hepes pH 7.4, 150 mM NaCl, 2 mM CaCl2, 0.05% Tween20; 1:1 Langmuir model
T1 construct: human cationic trypsin (TRY1); cloned as amino acids 16-247 (signal peptide removed); His6-tag and propeptide removed after enterokinase digestion; the final structure contains amino acids 24-247; catalytic serine replaced by alanine; also called TRY1 S200A; not shown: His6, N-terminal, cleaved

[2] = target: T2, human cationic trypsin (TRY1) WT (human, UniProt P07477 24-247); assay: enzyme inhibition assay (Morrison tight-binding fit); 100 pM TRY1, 1 mM L-BAPA, SPINK1 15.625-2000 pM; 20 mM Hepes pH 7.4, 150 mM NaCl, 2 mM CaCl2, 0.05% Tween20; 37 °C; initial rates after a 5 h lag phase; Morrison's quadratic equation
T2 construct: human cationic trypsin (TRY1); cloned as amino acids 16-247 (signal peptide removed); His6-tag and propeptide removed after enterokinase digestion; not shown: His6, N-terminal, cleaved

[3] = target: T1, human cationic trypsin (TRY1) p.S200A; assay: ITC; MicroCal PEAQ-ITC, 37 °C; TRY1 p.S200A in the cell at 5-10 µM, SPINK1 in the syringe at 50-100 µM; 20 mM Hepes pH 7.4, 150 mM NaCl, 2 mM CaCl2; one-site binding model

Row | Binder | half-life t1/2 of the complex [1] | kon [1] | Ki [2] | dH [3]
1 | B1 | ~1 h | 250000 M⁻¹ s⁻¹ | < 0.05 nM | ~-10 kcal/mol
2 | B2 | ~1 h | 250000 M⁻¹ s⁻¹ | < 0.05 nM | ~-10 kcal/mol
